For this data set, the system named is person suffering from chronic lymphatic leukemia (cancerous anemia).

Source text: The white blood cell count, the red blood cell count, the hemoglobin, and the blood platelet count before and after treatment are shown in Table 3 below.

In the case of “Rituxan: anticancer drug used to treat chronic lymphatic leukemia”, the “White blood cell count” value (2010 Nov. 22, after one cycle of Rituxan begun Nov. 15, 2010, before ALA, 2010 Jan. 13 value 16.48) amounted to 1560 µL⁻¹. Under “human, in vivo”, the “Anemia as side effect, result in words” value is “anemia progressed as a side effect”; the Blood platelet count stood at 101000 µL⁻¹; the Hemoglobin was 9.20 g/dL; the “Red blood cell count” value was determined as 2.8e+06 µL⁻¹.

For the origin of these results see patent US9539225B2, “Anemia of cancer improving/prophylactic agent” (SBI Pharmaceuticals Co., Ltd., priority 2011, dated 2017).
